These results are taken from patent publication US20020127227A1 (GlaxoSmithKline, published 2002).

Usually Kd stands for a measure of binding affinity in units of concentration.

In this assay the target is T1, recombinant human RHAMM (receptor for hyaluronic acid mediated motility), GST tag removed (human, UniProt O75330-3 1-725, limits assumed).
T1 construct: Any residues left by the linker after thrombin cleavage are not described; The BIAcore text says only 'RHAMM' and 'soluble monomeric RHAMM'; also called soluble monomeric RHAMM
T1 sequence (looked up): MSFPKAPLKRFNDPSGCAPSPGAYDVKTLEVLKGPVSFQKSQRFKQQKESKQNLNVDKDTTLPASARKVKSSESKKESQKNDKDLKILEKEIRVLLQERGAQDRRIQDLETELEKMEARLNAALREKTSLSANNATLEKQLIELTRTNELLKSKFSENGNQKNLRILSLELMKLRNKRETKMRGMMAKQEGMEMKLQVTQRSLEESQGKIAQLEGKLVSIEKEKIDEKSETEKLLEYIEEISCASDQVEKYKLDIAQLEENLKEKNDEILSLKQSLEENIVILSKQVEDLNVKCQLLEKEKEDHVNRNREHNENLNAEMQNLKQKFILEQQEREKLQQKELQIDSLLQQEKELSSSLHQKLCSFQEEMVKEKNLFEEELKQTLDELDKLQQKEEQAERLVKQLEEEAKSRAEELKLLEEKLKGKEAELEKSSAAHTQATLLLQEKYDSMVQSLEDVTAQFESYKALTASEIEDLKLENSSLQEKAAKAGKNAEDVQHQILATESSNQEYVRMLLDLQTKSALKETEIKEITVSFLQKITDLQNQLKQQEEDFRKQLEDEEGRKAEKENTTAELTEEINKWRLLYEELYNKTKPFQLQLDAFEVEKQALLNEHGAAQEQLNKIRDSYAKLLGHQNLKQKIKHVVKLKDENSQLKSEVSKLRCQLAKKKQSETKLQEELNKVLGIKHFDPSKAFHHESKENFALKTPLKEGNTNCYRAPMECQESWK
Kind of assay: BIAcore SPR, mAb captured on rabbit anti-mouse IgG Fc, RHAMM injected. The method, then: The affinity of the purified mAbs was measured in the BIAcore. Using a flow rate of 10 ul/min, the mAb (diluted in HBS buffer) was injected over a rabbit anti-mouse IgG Fc surface, followed by buffer flow and the RU recorded. RHAMM diluted in HBS buffer was then injected for 180s followed by buffer flow for 150s and regeneration of the sensor chip surface with an injection of 0.1 M phosphoric acid. BIAcore software was used for association and dissociation-phase analysis. The murine monoclonal antibodies bound to soluble monomeric RHAMM. The on-rates (kₐₛₛ) and off-rates (kdiss) were calculated.
For orientation: Surface plasmon resonance follows binding to a sensor surface in real time, without labels.

B1: murine monoclonal antibody 16E10 (antibody, V domains shown)
VH: QVQLKESGPGLVAPSQSLSITCTVSGFSLTGYGVNWVRQPPGKGLEWLGMIWVDGGTDYNSALKSRLSISKDNSKSQVFLKMNSLQTDDTARYYCARGGSSLLGFAYWGQGTLVTVSA
VL: DIQMTQTTSSLSASLGDRVTISCRASQDISNYLNWYQQKPDGTVKLLIYYTSRLHSGVPSRFSGSGSGTDYSLTISNLEQEDIATYFCQQGNTLPRTFGGGTKLEIKR
modifications: N-terminus of the heavy chain blocked with pyroglutamic acid
notes: The rest is mouse IgG with a kappa light chain (amplified with mouse IgG CH1 and C kappa primers); also called mAb 16E10; ATCC 16E10
For the molecule B1, the Kd came out at 0.47 nM.
